The values that follow come from US20100111995A1.

This test concerns the target CCR5 expressed on the cell surface (CEM.NKR-CCR5 cells; stimulated CD4+ T cells; CEM 5.25.EGFP.luc.M7 cells) (human) (UniProt P51681). As to the kind of experiment: cell-based or functional assay.

“RANTES (from UniProt P13501 24-91) (ligand)” registered an Antibody concentrations inhibiting HIV, 50% inhibition of 5.8 ng/mL and an Antibody concentrations inhibiting HIV, 70% inhibition of 14.7 ng/mL.
